Test results: publication PMC8594078
Where two headings read alike, the source gives them in different places.

B1: Apt 6 (ssDNA)
DNA: ATAGTCCCTGGCGTGCTTGACAGCAACACGAACACTGAACGTTCTTAACAAGCCTGGCAGAGCAGGTACGGTGTCA
B2: Apt 14 (ssDNA)
DNA: ATAGTCCCTGGCGTGCTTCCGCGAGAGTTCGACATTCCCGAAAGTACGACGAAAGTCCAGAGCAGGTACGGTGTCA

Assays:
[1] = target: T1, biotinylated human ACE2 (Acrobiosystems EP-105 kit) (Homo sapiens, UniProt Q9BYF1 18-740); test: competition ELISA
[2] = target: T1, biotinylated human ACE2 (Acrobiosystems …); test: competition ELISA; remark: listed apart in the source

T1 sequence (Q9BYF1 18-740): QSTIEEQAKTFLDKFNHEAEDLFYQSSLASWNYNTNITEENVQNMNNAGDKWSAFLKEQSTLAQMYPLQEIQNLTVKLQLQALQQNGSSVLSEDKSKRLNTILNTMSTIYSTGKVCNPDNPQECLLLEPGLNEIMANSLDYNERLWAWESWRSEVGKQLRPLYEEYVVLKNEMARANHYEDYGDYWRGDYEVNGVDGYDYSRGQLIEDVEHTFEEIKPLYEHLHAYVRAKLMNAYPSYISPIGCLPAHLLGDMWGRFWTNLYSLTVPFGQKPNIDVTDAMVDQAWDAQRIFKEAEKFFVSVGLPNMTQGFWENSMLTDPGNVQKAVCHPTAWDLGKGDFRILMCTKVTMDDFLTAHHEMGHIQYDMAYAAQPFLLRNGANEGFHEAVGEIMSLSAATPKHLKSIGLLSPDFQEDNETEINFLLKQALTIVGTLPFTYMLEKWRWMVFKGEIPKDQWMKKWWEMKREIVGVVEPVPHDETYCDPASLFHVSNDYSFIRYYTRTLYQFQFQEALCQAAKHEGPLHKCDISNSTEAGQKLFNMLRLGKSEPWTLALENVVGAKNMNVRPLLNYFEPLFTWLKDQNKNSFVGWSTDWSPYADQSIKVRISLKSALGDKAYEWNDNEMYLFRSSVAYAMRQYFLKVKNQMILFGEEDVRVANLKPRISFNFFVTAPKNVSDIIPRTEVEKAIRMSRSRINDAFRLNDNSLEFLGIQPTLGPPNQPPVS

Binder | IC50 [1] [nM] | IC50 [2] [nM]
B1 | 35 | 33
B2 | 132 | 47
